Experimental data published in paper PMC12204516, “Structural basis for higher-order DNA binding by a bacterial transcriptional regulator” (PLOS Genetics, 2025).
Values joined by “and” are separate entries in the source; they are usually repeats but may differ in a detail not shown here. Equal values may be shown once.

T1: Xre^Pp antitoxin with a N-terminal His6-tag (Xre_(NHis6)), of the Xre_(NHis6)-RES^Pp complex (Pseudomonas putida KT2440, UniProt Q88K58 11-159)
T1 construct: also called Xre_(His6); source: E. coli BL21(DE3), pETDuet::xre_(NHis6)-res^Pp, purified with RES (HisTrap FF, Source 15Q, Superdex 200 Increase); not shown: His6, N-terminal, kept
T1 sequence: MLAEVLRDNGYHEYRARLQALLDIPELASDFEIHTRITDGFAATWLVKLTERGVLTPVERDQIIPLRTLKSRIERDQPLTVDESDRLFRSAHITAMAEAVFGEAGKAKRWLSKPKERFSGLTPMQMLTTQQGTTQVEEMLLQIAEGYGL

B1: Xre^Pp antitoxin, untagged, co-expressed and co-purified with RES^Pp_(NHis6) (Xre-RES^Pp_(NHis6) complex) (natural protein, Pseudomonas putida KT2440, UniProt Q88K58 11-159, looked up)
chain: T1 sequence
notes: Xre antitoxin (N-terminal HTH domain, C-terminal DUF2384) encoded by xre^Pp of the xre-res locus, Pseudomonas putida KT2440; residues 1-149 built in PDB 9R35 (complete in chain B and others); also called Xre antitoxin
B2: RES^Pp toxin, untagged, co-expressed and co-purified with Xre_(NHis6) (Xre_(NHis6)-RES^Pp complex) (natural protein, Pseudomonas putida KT2440)
chain: MILWRISAYADLSGTGGLRVSGRWHQAGRPVVYAATSPPGAMLEVLVHLEIDPEDFPTTMRLLRIELPDTVSQAQLPALQPGWSAQPELTRTLGNRFLDDCSALLLPVPSAIMPSTTNYLFNPRHPQAQSAKIQVEDFTPDSRLF
notes: also called RES toxin
B3: RES^Pp toxin with N-terminal His6-tag (RES^Pp_(NHis6)), of the Xre-RES^Pp_(NHis6) complex (natural protein, Pseudomonas putida KT2440, UniProt Q88K57 1-145, looked up)
chain: B2 chain
notes: RES-domain NADase toxin encoded by res^Pp of the xre-res locus, Pseudomonas putida KT2440; residues 1-145 built in PDB 9R35; the 13 N-terminal residues from the tag are not seen in the model; also called RES_(His6); RES^Pp_(His6); not shown: His6, N-terminal, kept

How the values were obtained:
[1] = molecular target: B3; assay: mass photometry; details: both partners purified
[2] = molecular target: B3; assay: SEC-MALS; Superose 6 Increase 10/300, 20-40 ug per sample, 20 mM HEPES pH 7.5, 150 mM KCl, 5 mM MgCl2, 3 mM BME; details: both partners purified
mass photometry = molecular target: the molecule itself; assay: mass photometry
[3] = molecular target: T1, Xre^Pp antitoxin with a N-terminal …; assay: SEC; details: both partners purified
[4] = molecular target: the molecule itself; assay: SEC-MALS; Superose 6 Increase 10/300, 20-40 ug per sample, 20 mM HEPES pH 7.5, 150 mM KCl, 5 mM MgCl2, 3 mM BME

B1
stoichiometry N [1]: ~2 Xre per RES and ~1.5 Xre per RES and ~1 Xre per RES
stoichiometry N [2]: 2 Xre per RES

B2
binding result (mass photometry): binds
stoichiometry N [3]: 1 RES per Xre

B3
binding result [4]: binds
